Laboratory results as given in patent US20240409617A1.
Where a chain is given by its changes, count along the chain named.

B1: Ab2-7 IgG (antibody, V domains shown)
VH: QVTLKESGPTRVKPTQTLTLTCTFSGFSLSTTGVGVGWIRQPPGKALEWLALIYWNDDKRYSPSLKSRLTITKDTSKNQVVLTMTNMDPVDTATYYCARISGSGYFYPFDIWGQGTTVTVSS
VL: NFMLTQPHSVSESPGKTVTISCTRSSGSIASNYVQWYQQRPGSSPTTVIYEDNQRPSGVPDRFSGSIDSSSNSASLTISGLKAEDEADYYCQSYDSSSLWVFGGGTKLTVL
B2: Ab_17 scFv-Fc (scFv, V domains shown)
VH: QVQLVQSGGGVVQPGRSLRLSCAASGFTFDDYAMHWVRQVPGKGLEWVSGIDWNSGVIGYADSVKGRFTISRDNVKNSLYLQMNSLRTEDSALYYCAKDIGPGGSGSYYAFDIWGQGTTVTVSS
VL: QSALTQPASVSGSPGQSITISCTGTSSDVGGSKYVSWYQQHPGKAPKVMIYDVTKRPSGVPDRFSGSKSGNTASLTISGLQAEDEADYYCAAWDDSLNGVVFGGGTKLTVL
B3: Ab_18 scFv-Fc (scFv, V domains shown)
VH: EVQLVQSGGGVVQPGRSLRVSCAASGFSFSRYGMHWVRQAPGKGLEWVAFIRHDGSKKYYADSVEGRFTISRDNSRNTVSLEMNSLRGEDTAVYYCAKDGRLEAALDDWGQGTLVTVSS
VL: NFMLTQPHSMSGSAGKTVTVSCIRSSGSIANNFVQWYQQRPGSAPTTVIYEDNQRPSGVPDRFSGSIDSSSNSASLTISGLKTEDEADYYCQSYDSSNLVFGGGTRLTVL
B4: Ab_26 scFv-Fc (scFv, V domains shown)
VH: QVQLVQSGGGLVQPGRSLRLSCAASGFTFDDYAMHWVRQVPGKGLEWVSGIDWNSGVIGYADSVKGRFTISRDNAKNSLYLQMNSLRAEDTALYYCAKDAYSYGFLGAFDIWGQGTMVTVSS
VL: LPVLTQPPSVSVAPGQTASITCGGDNIRTKGVHWYQQKPGQAPLLVIYYASDRPSGIPERFSGSSSGNTATLTISRVEAGDEADYYCQVWDSSSDLVVFGGGTTLTVL
B5: Ab_14 scFv-Fc (scFv, V domains shown)
VH: QVQLQQSGPGLVKPSQTLSLTCAISGDSVSSNSAAWNWIRQSPARGLEWLGRTYYRSRWYNDYAISMKSRITINPDTSKNQFSLQLESVTPEDTAVYYCAREIRGFDYWGQGTLVTVSS
VL: QSVLTQPPSASGSPGQSVTISCTGTSSDVGAYNFVSWYQHHPGKAPKLIIYDFNKRPSGVPDRFSGSKSGNTASLTVSGLQADDEADYYCSSYAGSNNFDVVFGGGTKLTVL
B6: S1-RBD-R3-T1-B12 Ab (Ab_31) scFv-Fc (scFv, V domains shown)
VH: QVQLVQSGAEVKKPGSSVKVSCKASGGTFSSYTISWVRQAPGQGLEWMGGIIPILGTPNYAQKFQDRVAITADKSTSTAYMELSSLRSEDTAVYYCAVGSGWYSGFDYWGQGTLVTVSS
VL: NFMLTQPHSVSESPGKTVTISCTGSSGSIASNYVQWYQQRPGSAPTTVIYEDSQRPSGVPDRFSGSIDSSSNSASLTISGLKTEDEADYYCQSFHNSNPVIFGGGTKLTVL
B7: Ab_13 scFv-Fc (scFv, V domains shown)
VH: B1 VH with T10K, R11L, T32S, N56D, T72A, N78Y, T117M, S122A
VL: B1 VL with S44A, A83T, S98N
B8: S1-RBD-R3-T1-C7 Ab (Ab_29) scFv-Fc (scFv, V domains shown)
VH: QVQLQQSGPGLVKPSQTLSLTCAISGDSVSSYSDAWNWIRQSPSRGLEWLGRTYYRSKWYNDYAVSVKSRITINPDTSKNQFSLQLSSVTPEDTAVYYCAREIVATTPFRNYYYGMDVWGQGTTVTVSS
VL: B1 VL with K16N, S25T, Y50F, E51Q, N53K, Q54L, A83T
B9: Ab_25 scFv-Fc (scFv, V domains shown)
VH: QVQLVQSGGGLVQPGGSLRLSCAASGFTFSSYWMSWVRQAPGKGLEWVANIKQDGSEKYYVDSVKGRFTISRDNAKNSLYLQMNSLRAEDTAVYYCARGFYYYGAFDIWGQGTTVTVSS
VL: B1 VL with R24G, S44A, D68G, A83T, S98N, L99H
B10: Ab_20 scFv-Fc (scFv, V domains shown)
VH: QVQLVQSGGGSVKPGGSLRLSCAASGYRLSDYYMHWVRQAPGKGLEWVANIKQDGSEKYYVDSVKGRFTISRDNAKNSLYLQMNSLRAEDTAVYYCARVRGWSRGYFDYWGQGTLVTVSS
VL: B1 VL with R24G, S44A, T77L, A83T, S98N, L99H
B11: Ab_28 scFv-Fc (scFv, V domains shown)
VH: QVTLKESGPGLVNPSETLSLTCTVSGASISNSFWSWIRQSPGKGLEWIGYTSYSGNSIYNPSLKSRLTMSIDTSKNQLSLNLRSLTAADTAVYYCARREWIKGHFDYWGQGTLVTVSS
VL: B6 VL with S26G, S53N, F94Y, H95D, N96S, I101V
B12: S1-RBD-R3-T1-F5 (Ab2-7) scFv-Fc (scFv, V domains shown)
VH: B1 VH
VL: B1 VL
B13: RBD-R3-E1-B3 Ab (Ab_32) scFv-Fc (scFv, V domains shown)
VH: QVQLVQSGAEVKKPGESLKISCKGSGYSFTSYWIGWVRQMPGKGLEWMGIIYPGDSDTRYSPSFQGQVTISADKSISTAYLQWSSLKASDTAMYYCARGWQWHDYWGQGTLVTVSS
VL: QTVVTQEPAVSVALGQTVRITCQGDSLRSYYASWYQQKPGQAPVLVVYDKDKRPSGIPDRFSGSTSGNTASLTITGAQAEDEADYYCNSRDRSDNHVVFGGGTKLTVL
B14: S1-R3-T1-C4 (Ab_8) scFv-Fc (scFv, V domains shown)
VH: QVQLVQSGAEVKKPGSSVKVSCKASGGTFSSYAISWLRQAPGQGLEWMGWINPNSGGTNYAQKFQGRVTMTRDTSISTAYMELSRLRSDDTAVYYCARGSGGYYLGWGQGTLVTVSS
VL: QPGLTQPPSVSKGLRQTATLTCTGNSNNVGNQGAAWLQQHQGHPPKLLSYMNNNRPPGISERFSASRSGNTASLTITGLQPEDEADYYCSAWDSSLSRWVFGGGTKLSVL
B15: Ab_19 scFv-Fc (scFv, V domains shown)
VH: EVQLVESGAEVKKPGESLKISCKGSGYSFTSYWIGWVRQMPGKGLEWMGIIYPGDSDTRYSPSFQGQVTISADKSISTAYLQWSSLKASDTAMYYCARRGDLDAFDIWGQGTMVTVSS
VL: QPGLTQPPAASGTPGQRVTVSCSGASANIGSNAVSWFKQFPETAPRLLISGNTHRPSGVPDRVSGSKSGTSASLTISGLQSDDEADYYCAAWDDSLNGYVFGSGTKVTVL
B16: RBD-R3-E1-A5 Ab (Ab_30) scFv-Fc (scFv, V domains shown)
VH: QVQLVQSGGGVVQPGKSLRLSCTASGFTFSDFPIHWVRQAPGKGLEWVGVISYDGNIKYYGDSVKGRFTISRDNAKNSLYLQMNSLRVEDTAVYYCARGGSSFDIWGQGTTVTVSS
VL: SYELTQPPSVSEAPRQRVTISCSGSTSNIGNNAVSWYQHLPGKAPKLLIYYNERLPSGVSDRFSGSKSGTSASLAISGLRSEDEADYYCAAWDDSLSGHVVFGGGTKLTVL
B17: Ab_23 scFv-Fc (scFv, V domains shown)
VH: EVQLVQSGAEVKKPGSSVKVSCRSSGGTFSTYGITWVRQAPGQGLEWMGRIIPSLGIPNYAQKFQGRVTITADTSVSTAWMELSSLESDDTAIYYCARENIDLATNDFWGQGTLVTVSS
VL: QSALTQPPSASGSPGQSVTISCTGTSRDIGAYGYVSWYQQVPGKAPKLIIYEVRNRPSGVSSRFSGSKSGNTASLTISGLQAEDEADYYCSSYTSSSTLDVVFGGGTKLTVL
B18: Ab_27 scFv-Fc (scFv, V domains shown)
VH: QVQLVQSGTEVKKPGASVKVSCKASGYSFTGSHLHWVRQAPGQGLEWMGWINPDSGVINYAQKFQGRVTLTRDTSISTAYMELSGLRSDDTAVYYCARDKAIGYVWALDYWGQGTLVTVSS
VL: QSALTQPPSVSGSPGQSVTISCTGTSSDVGTYNRVSWYQQPPGKAPKLMIYEVSNRPSGVSNRFSGSKSGNTASLTISGLQAEDEADYYCSSYTRTFTYVFGTGTKVTVL
B19: Ab_21 scFv-Fc (scFv, V domains shown)
VH: QVQLVQSGGGLVQPGGSLRLSCATSGFTFDDYAMHWVRQAPGKGLEWVSGISWNSGSIGYVDSVKGRFTISRDNRNNKVYLQMNNLRAEDTAVYYCARDWWGSIDHWGLGTLVTVSS
VL: QSALTQPRSVSGSPGQSVTISCTGTSSDVGGYDYVSWYQQHPGKAPKLIIYDVSKRPSGVPDRFSGSKSGNTASLTVSGLQAEDEADYYCSSYTSSSPVVFGGGTKLTVL
B20: Ab_16 scFv-Fc (scFv, V domains shown)
VH: QVQLVQSGGGVVQPGRSLRLSCAASGFTFSNYGMHWVRQAPGKGLEWVALIWERGSKKDYADSVKGRFTVSRDNSKNTLYLQMNSLRPEDTAVYFCAREGISMTGAEYFQHWGQGTLVTVSS
VL: QSVLTQPPSVSGSPGQRVTMSCTGSSSNIGAGYDVHWYQQVPGAAPRLLIYGTNNRPSGVPDRFSGSKSGTSASLTITGLQAEDEADYYCQSYDNSLTDPYVFGTGTKVTVL
B21: Ab 38 scFv-Fc (scFv, V domains shown)
VH: QVTLKESGPTLVKPTQTLTLTCTFSGFSLTTSGVSVGWIRQPPGKALEWLALIHWDDDKRYSPSLRSRLTITRDTSKNQVVLTVTDMDPADTGTYYCASFIMTVYAEYFEDWGQGTLVTVSS
VL: EIVLTQSPATLSVSPGERATLSCRASQSVSSNLAWYQQKPGQAPRLLMYDVSTRATGIPARFSGSGSGTEFSLTISSLQSEDFAVYYCQQRGAWPLTFGGGTKVEIK

The binders below were run against SARS-CoV-2 receptor binding domain (RBD), recombinant, biotinylated (SARS-CoV-2) (assay: not given).

| Binder | Kd [nM] | koff [s⁻¹] | kon [M⁻¹ s⁻¹] |
| --- | --- | --- | --- |
| B1 | 0.268 | 3.93e-05 | 147000 |

These binders were tested against SARS-CoV-2 spike protein on stably transduced 293T cells (SARS-CoV-2) (assay: FACS binding curve, percent of cells labeled).

| Binder | fold shift of the FACS binding curve to the right, IgG against scFv-Fc [fold] |
| --- | --- |
| B1 | 10 |

Each binder was assayed against WT Spike (SARS-CoV2) (assay: not given).

| Binder | Kd [pM] | Response |
| --- | --- | --- |
| B2 | 6.35 | 0.248 |
| B3 | 9.07 | 0.216 |
| B4 | 11 | 0.185 |
| B5 | 8.22 | 0.313 |
| B6 | < 1 | 0.101 |
| B7 | 8.55 | 0.0732 |
| B8 | 149 | 0.126 |
| B9 | 8.9 | 0.0219 |
| B10 | 9.01 | 0.0985 |
| B11 | 8.9 | 0.132 |
| B12 | 7.85 | 0.0672 |
| B13 | 6.32 | 0.131 |
| B14 | 7.15 | 0.118 |
| B15 | 8.9 | 0.121 |
| B16 | 1.02 | 0.107 |
| B17 | 8.84 | 0.0845 |
| B18 | 8.78 | 0.202 |
| B19 | 9.25 | 0.147 |
| B20 | 11.8 | 0.346 |

The binders below were run against WT Spike (SARS-CoV-2 spike protein) (SARS-CoV-2) (assay: not given).

| Binder | Kd [pM] | Response |
| --- | --- | --- |
| B21 | 7.86 | 0.274 |
